Assay [1] addresses T1, β-catenin (UniProt P35222 134-665, limits assumed, biotinylated in the SPR and plate assays).
T1 construct: also called beta catenin; biotinylated β-catenin
T1 sequence (looked up): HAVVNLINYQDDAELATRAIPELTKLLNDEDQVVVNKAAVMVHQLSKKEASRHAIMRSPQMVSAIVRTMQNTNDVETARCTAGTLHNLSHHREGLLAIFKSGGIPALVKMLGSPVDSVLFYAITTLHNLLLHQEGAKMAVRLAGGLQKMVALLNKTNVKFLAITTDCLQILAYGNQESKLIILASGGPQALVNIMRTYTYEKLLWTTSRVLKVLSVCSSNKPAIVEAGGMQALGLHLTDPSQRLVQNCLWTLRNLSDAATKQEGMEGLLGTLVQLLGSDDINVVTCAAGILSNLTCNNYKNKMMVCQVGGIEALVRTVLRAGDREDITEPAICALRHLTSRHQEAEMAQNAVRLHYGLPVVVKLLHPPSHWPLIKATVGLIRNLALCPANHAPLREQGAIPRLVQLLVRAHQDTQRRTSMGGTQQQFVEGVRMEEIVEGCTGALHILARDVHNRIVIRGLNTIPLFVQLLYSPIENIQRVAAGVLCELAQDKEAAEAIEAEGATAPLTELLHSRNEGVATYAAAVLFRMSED
Put plainly: competitive FP. In outline: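 Competitive fluorescence polarization with inhibitor peptide serially diluted from 10 nM to 30 uM; polarization read at 470 nm excitation, 520 nm emission. Experiments performed three times.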

For assay [2], the target named is T1, β-catenin. Put plainly: cell-based or functional assay.

This is an account of results in patent US20260098059A1 (ENDOMET BIOSCIENCES, published 2026).

Several values for one entry are separate records, joined by “and”; a condition that tells them apart may be missing. Identical values can stand only once. Bridges are numbered along the chain shown (N, C = ends). [ ]: non-standard residue; d: D form. Some results are limits rather than exact numbers.

What is called Kd is the constant that tells how readily two partners part at equilibrium. Read a high Kd as a looser complex.

B1: SEQ ID NO: 176 (peptide)
peptide: DWFLICFWKG
HELM: PEPTIDE1{D.W.F.L.I.C.F.W.K.G}$PEPTIDE1,PEPTIDE1,1:R3-9:R3$$$V2.0
SMILES: CC[C@H](C)[C@@H]1NC(=O)[C@H](CC(C)C)NC(=O)[C@H](Cc2ccccc2)NC(=O)[C@H](Cc2c[nH]c3ccccc23)NC(=O)[C@@H](N)CC(=O)NCCCC[C@@H](C(=O)NCC(=O)O)NC(=O)[C@H](Cc2c[nH]c3ccccc23)NC(=O)[C@H](Cc2ccccc2)NC(=O)[C@H](CS)NC1=O
In the case of B1, the Kd in the assay with β-catenin [1] was > 10 µM and ≤ 30 µM. Also, the “Wnt Reporter EC50” value in the assay with β-catenin [2] was > 7.5 µM and ≤ 15 µM.

B2: SEQ ID NO: 189 (peptide)
peptide: XMWFLICFWD
HELM: PEPTIDE1{[O=C(CCCCCN[*:1])[*:2]].M.W.F.L.I.C.F.W.D}$PEPTIDE1,PEPTIDE1,1:R1-10:R3$$$V2.0
SMILES: CC[C@H](C)[C@@H]1NC(=O)[C@H](CC(C)C)NC(=O)[C@H](Cc2ccccc2)NC(=O)[C@H](Cc2c[nH]c3ccccc23)NC(=O)[C@H](CCSC)NC(=O)CCCCCNC(=O)C[C@@H](C(=O)O)NC(=O)[C@H](Cc2c[nH]c3ccccc23)NC(=O)[C@H](Cc2ccccc2)NC(=O)[C@H](CS)NC1=O
Consider B2, for which the Kd in the assay with β-catenin [1] is > 0.4 µM and ≤ 1 µM. In the assay with β-catenin [2], the “Wnt Reporter EC50” value is at most 7.5 µM.

B3: SEQ ID NO: 193 (peptide)
peptide: [Ado]MWFLICAWD-OH
modifications: lactam N-10
For B3, the Kd in the assay with β-catenin [1] was > 0.4 µM and ≤ 1 µM. Moreover, the “Wnt Reporter EC50” value in the assay with β-catenin [2] was at most 7.5 µM.

B4: SEQ ID NO: 192 (peptide)
peptide: XMWFLICAWD
HELM: PEPTIDE1{[O=C(CCCCCN[*:1])[*:2]].M.W.F.L.I.C.A.W.D}$PEPTIDE1,PEPTIDE1,1:R1-10:R3$$$V2.0
SMILES: CC[C@H](C)[C@@H]1NC(=O)[C@H](CC(C)C)NC(=O)[C@H](Cc2ccccc2)NC(=O)[C@H](Cc2c[nH]c3ccccc23)NC(=O)[C@H](CCSC)NC(=O)CCCCCNC(=O)C[C@@H](C(=O)O)NC(=O)[C@H](Cc2c[nH]c3ccccc23)NC(=O)[C@H](C)NC(=O)[C@H](CS)NC1=O
As for B4, the Kd with β-catenin [1] was at most 0.4 µM. Besides, in the assay with β-catenin [2], the “Wnt Reporter EC50” value was at most 7.5 µM.

B5: SEQ ID NO: 219 (peptide)
peptide: Ac-MWFLISFWG-OH
B5: the Kd with β-catenin [1] was > 0.4 µM and ≤ 1 µM. Further, the “Wnt Reporter EC50” value with β-catenin [2] was at most 7.5 µM.

B6: Peptide 2 (SEQ ID NO: 215) (peptide)
peptide: KLWALIXAWD
HELM: PEPTIDE1{[ac].K.[Nle].W.[Cha].L.I.[Abu].A.W.D}$PEPTIDE1,PEPTIDE1,2:R3-11:R3$$$V2.0
SMILES: CCCC[C@@H]1NC(=O)[C@@H](NC(C)=O)CCCCNC(=O)C[C@@H](C(=O)O)NC(=O)[C@H](Cc2c[nH]c3ccccc23)NC(=O)[C@H](C)NC(=O)[C@H](CC)NC(=O)[C@H]([C@@H](C)CC)NC(=O)[C@H](CC(C)C)NC(=O)[C@H](CC2CCCCC2)NC(=O)[C@H](Cc2c[nH]c3ccccc23)NC1=O
notes: also called Cyclo-acetyl-K*Nle-W-3-cyclohexyl-L-alanine-LI-(amino butyric acid-AWD*-COOH)
The molecule B6 returned a Kd in the assay with β-catenin [1] of at most 0.4 µM. Moreover, in the assay with β-catenin [2], the “Proliferation IC50, Endo cells” value was over 30 µM and the “Wnt Reporter EC50” value is over 30 µM.

B7: SEQ ID NO: 37 (peptide)
peptide: WWESILDEHVQRVWG
HELM: PEPTIDE1{[meW].[meW].E.S.I.L.D.E.H.V.Q.R.V.W.G.[am]}$$$$V2.0
SMILES: CC[C@H](C)[C@H](NC(=O)[C@H](CO)NC(=O)[C@H](CCC(=O)O)NC(=O)[C@H](Cc1c[nH]c2ccccc12)N(C)C(=O)[C@H](Cc1c[nH]c2ccccc12)NC)C(=O)N[C@@H](CC(C)C)C(=O)N[C@@H](CC(=O)O)C(=O)N[C@@H](CCC(=O)O)C(=O)N[C@@H](Cc1c[nH]cn1)C(=O)N[C@H](C(=O)N[C@@H](CCC(N)=O)C(=O)N[C@@H](CCCNC(=N)N)C(=O)N[C@H](C(=O)N[C@@H](Cc1c[nH]c2ccccc12)C(=O)NCC(N)=O)C(C)C)C(C)C
The molecule B7 returned a dissociation constant Kd with β-catenin [1] of at most 0.4 µM. In the assay with β-catenin [2], the “Wnt Reporter EC50” value was over 30 µM.

B8: SEQ ID NO: 404 (peptide)
peptide: WAQKILDEHGQRVWG
HELM: PEPTIDE1{[ac].W.[meA].Q.K.I.L.D.E.H.[O=C([C@@H](N[*:1])C1CCCCC1)[*:2]].Q.R.V.W.G.[am]}$PEPTIDE1,PEPTIDE1,5:R3-9:R3$$$V2.0
SMILES: CC[C@H](C)[C@@H]1NC(=O)[C@@H](NC(=O)[C@H](CCC(N)=O)NC(=O)[C@H](C)N(C)C(=O)[C@H](Cc2c[nH]c3ccccc23)NC(C)=O)CCCCNC(=O)CC[C@@H](C(=O)N[C@@H](Cc2c[nH]cn2)C(=O)N[C@H](C(=O)N[C@@H](CCC(N)=O)C(=O)N[C@@H](CCCNC(=N)N)C(=O)N[C@H](C(=O)N[C@@H](Cc2c[nH]c3ccccc23)C(=O)NCC(N)=O)C(C)C)C2CCCCC2)NC(=O)[C@H](CC(=O)O)NC(=O)[C@H](CC(C)C)NC1=O
In the assay with β-catenin [1], B8 gave a dissociation constant (Kd) of at most 0.4 µM. In the assay with β-catenin [2], the “Wnt Reporter EC50” value is over 30 µM.

B9: SEQ ID NO: 401 (peptide)
peptide: WAQKILDEHVQRVWG
HELM: PEPTIDE1{W.[meA].Q.K.I.L.D.E.H.V.Q.R.V.W.G.[am]}$PEPTIDE1,PEPTIDE1,4:R3-8:R3$$$V2.0
SMILES: CC[C@H](C)[C@@H]1NC(=O)[C@@H](NC(=O)[C@H](CCC(N)=O)NC(=O)[C@H](C)N(C)C(=O)[C@@H](N)Cc2c[nH]c3ccccc23)CCCCNC(=O)CC[C@@H](C(=O)N[C@@H](Cc2c[nH]cn2)C(=O)N[C@H](C(=O)N[C@@H](CCC(N)=O)C(=O)N[C@@H](CCCNC(=N)N)C(=O)N[C@H](C(=O)N[C@@H](Cc2c[nH]c3ccccc23)C(=O)NCC(N)=O)C(C)C)C(C)C)NC(=O)[C@H](CC(=O)O)NC(=O)[C@H](CC(C)C)NC1=O
On to B9, for which the Kd in the assay with β-catenin [1] was > 0.4 µM and ≤ 1 µM. For the same molecule, the “Wnt Reporter EC50” value with β-catenin [2] is over 30 µM.

B10: SEQ ID NO: 190 (peptide)
peptide: [Ado]MWFLICFWD-OH
modifications: lactam N-10
As for B10, the Kd in the assay with β-catenin [1] is > 0.4 µM and ≤ 1 µM. In the assay with β-catenin [2], the “Wnt Reporter EC50” value is at most 7.5 µM.

B11: SEQ ID NO: 261 (peptide)
peptide: KWALIXAWD
HELM: PEPTIDE1{[ac].K.W.[Cha].L.I.[Abu].A.W.D}$PEPTIDE1,PEPTIDE1,2:R3-10:R3$$$V2.0
SMILES: CC[C@@H]1NC(=O)[C@H]([C@@H](C)CC)NC(=O)[C@H](CC(C)C)NC(=O)[C@H](CC2CCCCC2)NC(=O)[C@H](Cc2c[nH]c3ccccc23)NC(=O)[C@@H](NC(C)=O)CCCCNC(=O)C[C@@H](C(=O)O)NC(=O)[C@H](Cc2c[nH]c3ccccc23)NC(=O)[C@H](C)NC1=O
Consider B11, for which the Kd with β-catenin [1] is > 0.4 µM and ≤ 1 µM. Also, in the assay with β-catenin [2], the “Proliferation IC50, Endo cells” value was 7.7 µM; the “Proliferation IC50, Wnt dependent cells” value amounted to 4 µM; the “Wnt Reporter EC50” value is > 7.5 µM and ≤ 15 µM.

B12: SEQ ID NO: 262 (peptide)
peptide: KWGLIXAWD
HELM: PEPTIDE1{[ac].K.W.[O=C([C@@H](N[*:1])C1CCCCC1)[*:2]].L.I.[Abu].A.W.D}$PEPTIDE1,PEPTIDE1,2:R3-10:R3$$$V2.0
SMILES: CC[C@@H]1NC(=O)[C@H]([C@@H](C)CC)NC(=O)[C@H](CC(C)C)NC(=O)[C@H](C2CCCCC2)NC(=O)[C@H](Cc2c[nH]c3ccccc23)NC(=O)[C@@H](NC(C)=O)CCCCNC(=O)C[C@@H](C(=O)O)NC(=O)[C@H](Cc2c[nH]c3ccccc23)NC(=O)[C@H](C)NC1=O
Consider B12, for which the Kd with β-catenin [1] was > 0.4 µM and ≤ 1 µM. In the assay with β-catenin [2], the “Proliferation IC50, Endo cells” value was 26.3 µM and the “Proliferation IC50, Wnt dependent cells” value worked out at 5 µM.

B13: SEQ ID NO: 175 (peptide)
peptide: DWFLICFWKG
HELM: PEPTIDE1{[ac].D.W.F.L.I.C.F.W.K.G}$PEPTIDE1,PEPTIDE1,2:R3-10:R3$$$V2.0
SMILES: CC[C@H](C)[C@@H]1NC(=O)[C@H](CC(C)C)NC(=O)[C@H](Cc2ccccc2)NC(=O)[C@H](Cc2c[nH]c3ccccc23)NC(=O)[C@@H](NC(C)=O)CC(=O)NCCCC[C@@H](C(=O)NCC(=O)O)NC(=O)[C@H](Cc2c[nH]c3ccccc23)NC(=O)[C@H](Cc2ccccc2)NC(=O)[C@H](CS)NC1=O
For B13, in the assay with β-catenin [1], the Kd is > 10 µM and ≤ 30 µM. The “Wnt Reporter EC50” value with β-catenin [2] is > 7.5 µM and ≤ 15 µM.

B14: SEQ ID NO: 196 (peptide)
peptide: Ac-WFLIAFWG-OH
B14: the Kd with β-catenin [1] is > 0.4 µM and ≤ 1 µM. For the same molecule, the “Wnt Reporter EC50” value with β-catenin [2] is at most 7.5 µM.

B15: SEQ ID NO: 194 (peptide)
peptide: Ac-WFLICFWG-OH
Regarding B15, the dissociation constant (Kd) with β-catenin [1] is > 0.4 µM and ≤ 1 µM. Moreover, the “Wnt Reporter EC50” value with β-catenin [2] was at most 7.5 µM.

B16: SEQ ID NO: 220 (peptide)
peptide: Ac-WFLISFWG-OH
notes: also called Hit 5
With B16, the Kd with β-catenin [1] is > 0.4 µM and ≤ 1 µM. Moreover, in the assay with β-catenin [2], the “Wnt Reporter EC50” value is at most 7.5 µM.

B17: SEQ ID NO: 195 (peptide)
peptide: Ac-WILISFWG-OH
In the assay with β-catenin [1], B17 came in with a Kd of at most 0.4 µM. The “Wnt Reporter EC50” value with β-catenin [2] was at most 7.5 µM.
